In assay [1] the test system is mouse peritoneal mast cells. The assay is described as follows: intracellular calcium mobilization, freshly isolated peritoneal mast cells. The settings on record: 1000 nM chemerin, 100 nM ATP. It counts as cell-based. As to the method:
(§1) Chemoattractant-stimulated Ca^2+-mobilization was performed following Alliance for Cell Signaling protocol ID PP00000210. Cells (3×10^6/mL) were loaded with 4 μM Fluo4-AM and 0.16% Pluronic acid F-127 (Molecular Probes) in modified Iscove's medium (Iscove's medium with 1% heat inactivated bovine calf serum and 2 mM L-glutamine, Invitrogen) for 30 minutes at 37° C. The samples were mixed every 10 minutes during loading, washed once, resuspended at up to 2×10^6/mL in the same buffer, and allowed to rest in the dark for 30 minutes at room temperature. Chemoattractant-stimulated change in Ca^2+-sensitive fluorescence of Fluo-4 was measured over real-time with a FACsScan flow cytometer and CellQuest software (BD Biosciences) at room temperature under constant stirring (500 rpm). Fluorescent data were acquired continuously up to 1024 seconds at 1-second intervals. The samples were analyzed for 45 seconds to establish basal state, removed from the nozzle to add the stimuli, and then returned to the nozzle. Mean channel fluorescence over time was analyzed with FlowJo (TreeStar, Ashland, Oreg., USA) software. […] 500 μl of these chemerin-loaded cells were added to mCMKLR1/L1.2 cells loaded with Fluo4-AM, and calcium mobilization was evaluated.
A general note: Calcium assays in cells follow changes in intracellular calcium, usually with a dye or a luminescent sensor.

The target in assay [2] is T1, mCCRL2 (Mus musculus, UniProt O35457).
T1 construct: The coding regions of mCCRL2, huCCRL2, mCRTH2, and huCCR10 were amplified from genomic DNA; expressed in transfected cells
T1 sequence (O35457 1-360): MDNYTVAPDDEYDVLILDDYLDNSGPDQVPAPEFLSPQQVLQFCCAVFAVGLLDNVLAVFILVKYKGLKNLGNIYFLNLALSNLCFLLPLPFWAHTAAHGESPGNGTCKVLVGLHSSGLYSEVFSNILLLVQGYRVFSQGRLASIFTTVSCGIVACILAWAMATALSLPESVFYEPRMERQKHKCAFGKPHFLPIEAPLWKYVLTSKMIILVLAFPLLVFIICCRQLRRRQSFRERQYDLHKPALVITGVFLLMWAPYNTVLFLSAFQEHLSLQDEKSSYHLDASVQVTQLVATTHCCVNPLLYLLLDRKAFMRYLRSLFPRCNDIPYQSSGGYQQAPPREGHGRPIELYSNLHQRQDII
The assay is described as follows: in vitro transwell chemotaxis, mCCRL2/L1.2 transfectants. Type of assay: cell-based. The settings on record: range of doses; CXCL12 and CCL19 act via endogenous CXCR4 and CCR7. On the procedure:
(§2) For migration experiments using cell lines, 2.5×10^5 cells/100 μl chemotaxis media (RPMI+10% fetal calf serum) were added to the top wells of 5-um pore transwell inserts (Costar, Corning, N.Y., USA), and test samples in 600 μl media were added to the bottom wells. After incubating the transwell plates for 1.5 hours at 37° C., the bottom wells were harvested and flow cytometry was used to assess migration. For primary cell chemotaxis, 1×10^6 cells/100 μl were added to the top well, and, following a 2 hour incubation at 37° C., polystyrene beads (15.0 μm diameter, Polysciences, Warrington, Pa., USA) were added to each well to facilitate normalization of the cell count. The cells were then stained for c-kit, F4/80, and/or CD11b expression and analyzed by flow cytometry. A ratio was generated and percent input migration was calculated.

The next assay addresses T2, huCCRL2 (Homo sapiens, UniProt O00421).
T2 construct: The coding regions of mCCRL2, huCCRL2, mCRTH2, and huCCR10 were amplified from genomic DNA; expressed in transfected cells
T2 sequence (O00421 1-344): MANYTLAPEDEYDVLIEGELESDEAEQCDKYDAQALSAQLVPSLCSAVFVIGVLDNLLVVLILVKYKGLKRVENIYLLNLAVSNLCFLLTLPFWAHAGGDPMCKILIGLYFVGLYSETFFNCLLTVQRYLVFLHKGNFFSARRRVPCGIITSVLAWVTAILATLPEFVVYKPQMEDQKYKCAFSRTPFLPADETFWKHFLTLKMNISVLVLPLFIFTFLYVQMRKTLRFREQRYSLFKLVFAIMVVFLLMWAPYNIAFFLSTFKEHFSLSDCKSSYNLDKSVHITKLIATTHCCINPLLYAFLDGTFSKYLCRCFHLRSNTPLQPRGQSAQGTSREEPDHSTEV
The assay is described as follows: in vitro transwell chemotaxis, huCCRL2-HA/L1.2 transfectants. The settings on record: range of doses; CXCL12 and CCL19 act via endogenous CXCR4 and CCR7. It counts as cell-based. As to the method: as §2

Assay [3] addresses T1, mCCRL2. The assay is described as follows: intracellular calcium mobilization, mCCRL2/L1.2 transfectants. The settings on record: Fluo-4; CXCL12 acts via endogenous CXCR4. Type of assay: cell-based. On the procedure: as §1
For another assay, the system named is peritoneal macrophages. In words: mCCRL2 expression on peritoneal macrophages cultured 24 h with stimuli. The note with it: 24 h culture with stimulus.
For assay [4], the system named is mouse peritoneal mast cells. The assay is described as follows: in vitro transwell chemotaxis, peritoneal mast cells. It counts as cell-based. The settings on record: SSChigh CD11b- c-kit+ cells. As to the method:
as §2

In a further assay the test system is bEND3 cells. In words: CCRL2 expression in TNFα-treated bEND3 endothelioma cells. Type of assay: cell-based, mouse. The note with it: 24-hour treatment, 20 ng/ml. The text has this: FIG. 22. […] Panel A. Robust upregulation of CCRL2 RNA by microarray analysis (Affymetrix®). Panel B. TNFα-treated bEND3 cells acquire CCRL2 surface protein (but not CMKLR1 expression) as determined by mAb staining and flow cytometry. Panel C. […] CCRL2/L1.2 and empty vector pcDNA3/L1.2 transfectants are shown as controls. The mean+/−SD of triplicate wells is shown for an individual experiment. A representative data set of 2 performed with similar results is shown for parts B and C, and n=1 for part A.
2005. J Exp Med 201: 509-515). […] We observed the same TNFα-mediated induction of protein expression by mAb staining […].

For assay [5], the target named is mouse CCRL2 (chemokine (CC motif) receptor-like 2), untagged (mouse) (UniProt O35457). In words: saturation binding of 125I-chemerin 21-148 to mCCRL2/L1.2 cells, one-site fit; saturation binding, single site.
Assay [6] deals with T3, mouse CCRL2 with an engineered N-terminal hemagglutinin (HA) tag (mouse, UniProt O35457 1-360).
T3 construct: whole, on cells; also called mCCRL2-HA; mCCRL2-HA/L1.2; not shown: engineered N-terminal HA tag
T3 sequence (looked up): T1 sequence (O35457 1-360)
In words: flow cytometry; untagged chemerin competes with 10 nM His8-tagged serum form human chemerin, detected with anti-His6 PE. (In general: A flow cytometer gives signals particle by particle.)

Assay [7] deals with T4, human CCRL2 with an engineered N-terminal hemagglutinin (HA) tag (human, UniProt O00421 1-344).
T4 construct: whole, on cells; also called huCCRL2-HA; not shown: engineered N-terminal HA tag
T4 sequence (looked up): T2 sequence (O00421 1-344)
The assay is described as above.

Assay [8] addresses T5, mouse CCRL2 (chemokine (CC motif) receptor-like 2), untagged (mouse, UniProt O35457 1-360).
T5 construct: whole, on cells; also called mCCRL2; mCCRL2/L1.2
T5 sequence (looked up): T1 sequence (O35457 1-360)
In words: flow cytometry on peritoneal mast cells (F4/80-, c-kit+ gate) of WT and CCRL2 KO mice, 10 nM His8-tagged isoform, anti-His6 PE [panel E].

In assay [9] the target is T5, mouse CCRL2 (chemokine (CC motif) …). The assay is described as follows: flow cytometry on WT peritoneal mast cells; competitor displaced: 10 nM His8-tagged serum form chemerin, anti-His6 PE [panel E].

For the molecule `Nc1ncnc2c1ncn2[C@@H]1O[C@H](COP(=O)(O)OP(=O)(O)OP(=O)(O)O)[C@@H](O)[C@H]1O` [ATP, reference compound], in assay [1], the intracellular calcium mobilization result was “responded”. For the molecule “CCL5: chemokine purchased from R&D Systems”, in the assay with mCCRL2 [2], the transwell migration result is given as “did not induce migration”. Take “CCL7: chemokine purchased from R&D Systems”: the transwell migration entry with mCCRL2 [2] was “did not induce migration”. Still for that read-out and setting: with CCL11: known chemoattractant the entry was “none stimulated”.

As for “CCL19: chemokine, positive control via CCR7”, the transwell migration result in the assay with huCCRL2 and with mCCRL2 [2] was “migrated” each time.

As to CCL28: known chemoattractant, the transwell migration entry in the assay with mCCRL2 [2] is “none stimulated”. On the same count and under the same terms, with CXCL9: known chemoattractant the entry was “none stimulated”.

In the case of “CXCL12: chemokine, positive control via CXCR4”, the transwell migration result in the assay with huCCRL2 and with mCCRL2 [2] was “migrated” throughout. Moreover, in the assay with mCCRL2 [3], the intracellular calcium mobilization result is “responded”.

For CXCL13: known chemoattractant, the transwell migration result with mCCRL2 [2] was “none stimulated”.

For the molecule IFNγ: cytokine purchased from Roche, the “mCCRL2 protein expression on peritoneal macrophages” value (“mCCRL2 protein expression” below) in the assay on peritoneal macrophages is recorded as “upregulated”. Take “SCF: stem cell factor, positive control for mast cell chemotaxis [reference compound]”: the transwell migration result in assay [4] was “migrated”. Regarding TNFα, in the assay on bEND3 cells, the “CCRL2 mRNA” value is listed as “highly upregulated” and the “CCRL2 protein expression by mAb staining” value is on record as “induction”. In addition, the “mCCRL2 protein expression” value in the assay on peritoneal macrophages is given as “upregulated”. Take poly:IC: the “mCCRL2 protein expression” value in the assay with peritoneal macrophages is recorded as “upregulated”.

B1: radioiodinated human chemerin (residues 21-148) (ligand, UniProt Q99969 21-148, looked up)
chain: ELTEAQRRGLQVALEEFHKHPPVQWAFQETSVESAVDTPFPAGIFVRLEFKLQQTSCRKRDWKKPECKVRPNGRKRKCLACIKLGSEDKVLGRLVHCPIETQVLREAEEHQETQCLRVQRAGEDPHSF
modifications: 125I-labelled (radioiodinated), specific activity 97 Ci/g
As a reminder, the Kd is the free concentration of one partner at which half of the binding sites on the other are occupied at equilibrium, for simple one-to-one binding. A higher Kd goes with a looser complex. Take B1: the equilibrium dissociation constant (Kd) in assay [5] came to 1.6 nM.

B2: CCL27: known chemoattractant (protein, UniProt Q9Y4X3 25-112, looked up)
C-C motif chemokine 27: FLLPPSTACCTQLYRKPLSDKLLRKVIQVELQEADGDCHLQAFVLHLAQRSICIHPQNPSLSQWFEHQERKLHGTLPKLNFGMLRKMG
Regarding B2, the transwell migration result with mCCRL2 [2] is on record as “none stimulated”.

B3: CCL8: chemokine purchased from R&D Systems (protein, UniProt P80075 24-99, looked up)
C-C motif chemokine 8: QPDSVSIPITCCFNVINRKIPIQRLESYTRITNIQCPKEAVIFKTKRGKEVCADPKERWVRDSMKHLDQIFQNLKP
Consider B3, for which the transwell migration entry with mCCRL2 [2] is on record as “did not induce migration”.

B4: CCL17: known chemoattractant (protein, UniProt Q92583 24-94, looked up)
C-C motif chemokine 17: ARGTNVGRECCLEYFKGAIPLRKLKTWYQTSEDCSRDAIVFVTVQGRAICSDPNNKRVKNAVKYLQSLERS
For B4, the transwell migration result in the assay with mCCRL2 [2] is “none stimulated”.

B5: untagged "serum form" human chemerin (His8 tag removed by carboxypeptidase A) (ligand)
chain: ADPELTEAQRRGLQVALEEFHKHPPVQWAFQETSVESAVDTPFPAGIFVRLEFKLQQTSCRKRDWKKPECKVRPNGRKRKCLACIKLGSEDKVLGRLVHCPIETQVLREAEEHQETQCLRVQRAGEDPHSFYFPGQFAPH
notes: The assays print 'untagged serum form chemerin' or 'serum form chemerin' without the species; Printed with an ellipsis; also called untagged serum form chemerin; untagged chemerin
What is called EC50 is the concentration needed to bring the measured effect to its halfway point. Read a low EC50 as an effect from little substance. For B5, the values for the EC50 in assay [6] and in [7] were 45 nM and 7 nM, respectively.

B6: CCL22: known chemoattractant (protein, UniProt O00626 25-93, looked up)
C-C motif chemokine 22: GPYGANMEDSVCCRDYVRYRLPLRVVKHFYWTSDSCPRPGVVLLTFRDKEICADPRVPWVKMILNKLSQ
Turning to B6, in the assay with mCCRL2 [2], the transwell migration result is given as “none stimulated”.

B7: carboxyl-terminal His8-tagged "pro-form" human chemerin (ligand)
chain: ADPELTEAQRRGLQVALEEFHKHPPVQWAFQETSVESAVDTPFPAGIFVRLEFKLQQTSCRKRDWKKPECKVRPNGRKRKCLACIKLGSEDKVLGRLVHCPIETQVLREAEEHQETQCLRVQRAGEDPHSFYFPGQFAFSKALPRSPHHHHHHHH
notes: Printed with an ellipsis, and with six H although called His8-tagged; also called His8-tagged chemerin isoform
On to B7, for which the binding result in [8] is “binds”.

B8: pro-form (1000 nM untagged chemerin isoform) (ligand)
chain: ADPELTEAQRRGLQVALEEFHKHPPVQWAFQETSVESAVDTPFPAGIFVRLEFKLQQTSCRKRDWKKPECKVRPNGRKRKCLACIKLGSEDKVLGRLVHCPIETQVLREAEEHQETQCLRVQRAGEDPHSFYFPGQFAFSKALPRSPH
notes: also called untagged pro-form human chemerin, His8 tag removed by carboxypeptidase A
Turning to B8, in assay [9], the binding result was “binds”.

B9: CCL25: known chemoattractant (protein, UniProt O15444 24-150, looked up)
C-C motif chemokine 25: QGVFEDCCLAYHYPIGWAVLRRAWTYRIQEVSGSCNLPAAIFYLPKRHRKVCGNPKSREVQRAMKLLDARNKVFAKLHHNTQTFQAGPHAVKKLSSGNSKLSSSKFSNPISSSKRNVSLLISANSGL
On to B9, for which the transwell migration entry in the assay with mCCRL2 [2] is given as “none stimulated”.
